In this data set the target is N234 (nucleoprotein domains N2-N3-N4) (SARS-CoV-2 (NC_045512.2), UniProt P0DTC9 47-364). In words: NMR; 1D NMR; 100 uM RNA, 50 uM N234. Conditions: protein: recombinant; tags: N-terminal His6-TEV, cleaved; chain copies: 2; single strand.

For AAAAAA (ssRNA) [polyA hexameric RNA], the binding result is recorded as “binds”.
